# T1: human CD19 (Homo sapiens, UniProt P15391)
# T1 construct: expressed in transfected cells; host or cells: mouse cell line 300.19
# T1 sequence (P15391 20-556): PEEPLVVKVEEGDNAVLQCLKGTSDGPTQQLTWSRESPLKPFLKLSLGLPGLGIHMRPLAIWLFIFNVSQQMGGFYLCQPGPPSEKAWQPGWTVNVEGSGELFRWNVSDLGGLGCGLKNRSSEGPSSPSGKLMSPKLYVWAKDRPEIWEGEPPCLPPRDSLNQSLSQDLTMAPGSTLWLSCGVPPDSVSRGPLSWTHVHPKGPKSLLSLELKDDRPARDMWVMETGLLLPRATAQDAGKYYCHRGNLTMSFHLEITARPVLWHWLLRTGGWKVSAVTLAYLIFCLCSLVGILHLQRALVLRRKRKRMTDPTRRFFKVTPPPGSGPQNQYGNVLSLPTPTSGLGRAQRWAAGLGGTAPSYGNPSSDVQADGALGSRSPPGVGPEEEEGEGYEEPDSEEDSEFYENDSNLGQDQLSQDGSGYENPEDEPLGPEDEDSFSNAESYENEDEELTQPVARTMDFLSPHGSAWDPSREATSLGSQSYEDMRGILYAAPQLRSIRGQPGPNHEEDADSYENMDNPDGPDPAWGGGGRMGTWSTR
# T2: recombinant human CD2 (Homo sapiens, UniProt P06729)
# T2 construct: transiently produced and purified from HEK293 cells along with the CD2 extracellular domain; made in house; host or cells: HEK293 / HEK293F, transient
# T2 sequence (P06729 with tags, fused parts or gaps): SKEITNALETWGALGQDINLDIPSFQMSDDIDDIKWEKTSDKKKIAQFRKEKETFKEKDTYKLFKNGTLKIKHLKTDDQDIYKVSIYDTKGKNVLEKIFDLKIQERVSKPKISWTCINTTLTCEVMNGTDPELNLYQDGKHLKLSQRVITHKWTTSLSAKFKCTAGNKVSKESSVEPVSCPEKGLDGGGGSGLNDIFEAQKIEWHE
# B1: NEG258: CD19 antibody; VH SEQ ID NO:13, VL SEQ ID NO:26 (antibody, V domains shown)
# VH: QVQLVQSGAEVKKPGASVKVSCKASGYTFTTYWIQWVRQAPGQRLEWMGAVYPGDADTRYTQKFQGRVTLTADRSASTAYMELSSLRSEDTAVYYCGRDAGLEYYALDYWGQGTLVTVSS
# VL: EIVMTQSPATLSVSPGERATLSCRASQDVGTAVAWYQQKPGQAPRLLIYWASTRHTGIPARFSGSGSGTEFTLTISSLQSEDFAVYFCQQYANFPLYTFGQGTKLEIK
# B2: IgV V54C_G88C: CD58 IgV domain with V54 and G88 replaced by cysteines (stabilizing disulfide) (protein)
# chain: SQQIYGVVYGNVTFHVPSNVPLKECLWKKQKDKVAELENSEFRAFSSFKNRVYLDTVSCSLTIYNLTSSDEDEYEMESPNITDTMKFFLYVLESGGGGSHHHHHHHH
# B3: CD58_IgV: recombinant human CD58 IgV domain (domain 1), no added disulfide (protein)
# chain: SQQIYGVVYGNVTFHVPSNVPLKEVLWKKQKDKVAELENSEFRAFSSFKNRVYLDTVSGSLTIYNLTSSDEDEYEMESPNITDTMKFFLYVLESGGGGSHHHHHHHH
# B4: IgV V45C_M114C: CD58 IgV domain with V45 and M114 replaced by cysteines (stabilizing disulfide) (protein)
# chain: SQQIYGVVYGNVTFHCPSNVPLKEVLWKKQKDKVAELENSEFRAFSSFKNRVYLDTVSGSLTIYNLTSSDEDEYEMESPNITDTCKFFLYVLESGGGGSHHHHHHHH
# B5: IgV V45C_M105C: CD58 IgV domain with V45 and M105 replaced by cysteines (stabilizing disulfide) (protein)
# chain: SQQIYGVVYGNVTFHCPSNVPLKEVLWKKQKDKVAELENSEFRAFSSFKNRVYLDTVSGSLTIYNLTSSDEDEYECESPNITDTMKFFLYVLESGGGGSHHHHHHHH
# B6: NEG218: CD19 antibody; VH SEQ ID NO:39, VL SEQ ID NO:52 (antibody, V domains shown)
# VH: EVQLVQSGAEVKKPGESLKISCKASGYSFTNYWMNWVRQMPGKGLEWMGMIHPSDSEIRLNQKFQGQVTLSVDKSIGTAYMQWSSLKASDTAMYYCSRWYYLSSPMDYWGQGTTVTVSS
# VL: EIVMTQSPATLSVSPGERATLSCRASQDVGTAVAWYQQKPGQAPRLLIYWASTRHTGIPARFSGSGSGTEFTLTISSLQSEDFAVYFCQQYSSYPYTFGQGTKLEIK
# B7: CD3hi: anti-CD3 antibody having high affinity to CD3 (in relative terms) (antibody, V domains shown)
# VH: EVQLVESGGGLVQPGGSLKLSCAASGFTFNTYAMNWVRQASGKGLEWVGRIRSKYNNYATYYADSVKDRFTISRDDSKSTLYLQMNSLKTEDTAVYYCVRHGNFGNSYVSWFAYWGQGTLVTVSS
# VL: QAVVTQEPSLTVSPGGTVTLTCRSSTGAVTTSNYANWVQQKPGQAPRGLIGGTNKRAPWTPARFSGSLLGDKAALTLSGAQPEDEAEYFCALWYSNLWVFGGGTKLTVL
# B8: CD3lo: anti-CD3 antibody having low affinity to CD3 (in relative terms) (antibody, V domains shown)
# VH: EVQLVESGGGLVQPGGSLKLSCAASGFTFNTYAMNWVRQASGKGLEWVGRIRSKYNNYATYYADSVKDRFTISRDDSKSTAYLQMNSLKTEDTAVYYCVRHGNFGNSYVSWFAYWGQGTLVTVSS
# VL: QAVVTQEPSLTVSPGGTVTLTCRSSTGAVTTSNYANWVQQKPGQAPRGLIGGTNKRAPWTPARFSGSLLGDKAALTLSGAQPEDEAEYFCALWYSNLWVFGGGTKLTVL
# B9: CD3med: anti-CD3 antibody having medium affinity to CD3 (in relative terms) (antibody, V domains shown)
# VH: EVQLVESGGGLVQPGGSLKLSCAASGFTFNTYAMNWVRQASGKGLEWVGRIRSKYNNYATYYADSVKDRFTISRDDSKNTAYLQMNSLKTEDTAVYYCVRHGNFGNSYVSWFAHWGQGTLVTVSS
# VL: QAVVTQEPSLTVSPGGTVTLTCGSSTGAVTSSNYANWVQQKPGQAPRGLIGGTNKRAPWTPARFSGSLLGGKAALTLSGAQPEDEAEYYCALWYSNLWVFGGGTKLTVL
# B10: CD58 Full ECD: recombinant human CD58 full extracellular domain (protein)
# chain: SQQIYGVVYGNVTFHVPSNVPLKEVLWKKQKDKVAELENSEFRAFSSFKNRVYLDTVSGSLTIYNLTSSDEDEYEMESPNITDTMKFFLYVLESLPSPTLTCALTNGSIEVQCMIPEHYNSHRGLIMYSWDCPMEQCKRNSTSIYFKMENDLPQKIQCTLSNPLFNTTSSIILTTCIPSSGHSRHRGGGGSHHHHHHHH
# Columns and labels:
# [1] = target: T1, human CD19; assay: Binding of TBMs to 300.19 cells overexpressing human CD19 (FACS); details: for binding to human CD19 compared with cyno CD19: 300.19 cells overexpressing human or cyno CD19
# Method: (§1) The mouse cell line 300.19 was engineered to overexpress either human CD19 or cyno CD19. Cells were cultured in RPMI medium (Invitrogen #11875-093) with 10% FBS and 2-mercaptoethanol. Cells were harvested and resuspended in FACS buffer (PBS containing 1% FBS). 50,000 cells per well were plated in a V-bottom 96-well plate. Each cell line was incubated with serial dilutions of TBMs of Example 1A (i.e., R variants) for one hour on ice. Cells were centrifuged for 4 min at 400×g and washed with FACS buffer. This was repeated twice, and then the cells were incubated with Alexa-647 labeled anti-human Fc secondary antibody (Jackson Immuno #109-605-098) for 30 min on ice. The cells were washed twice, then resuspended in 100 μL of FACS buffer. FACS data was collected on a Beckman Coulter Cytoflex and analysis was performed using CytExpert v2.3.
# [2] = test system: cyno CD19; assay: Binding of TBMs to 300.19 cells overexpressing cyno CD19 (FACS); parameters: species or system cynomolgus
# Method: as §1
# [3] = Thermal stability of CD58 variants by differential scanning fluorimetry (DSF); format: physicochemical
# Method: Disulfide stabilized variants were assessed for improved thermal stability using both differential scanning calorimetry (DSC) and differential scanning fluorimetry (DSF) using standard techniques. For DSF, 1-3 ug of each construct was add to 1× Sypro Orange (Thermo-Fisher) in 25 ul total volume in 96-well PCR plate. Using a Bio-Rad CFX96 RT-PCR system equipped with C1000 Thermal Cycler, the temperature was increased from 25° C. to 95° C. at 0.5° C./minute and the fluorescence monitored. The manufacturer-supplied software was used to determine Tm.
# [4] = Thermal stability of CD58 variants by differential scanning calorimetry (DSC); format: physicochemical; details: HBS, 0.5 mg/mL
# Method: For DSC, all samples were dialyzed into HEPES-buffered saline (HBS) and diluted to final concentration of 0.5 mg/mL. Tm and Tonset were determined using a MicroCal VP-Capillary DSC system (Malvern) by increasing temperature from 25° C. to 100° C. at 1° C./minute with a filtering period of 2 seconds and a mid-gain setting.
# [5] = target: CD3-Fc; assay: CD3 affinity measurement of anti-CD3 mAbs (Biacore T200); format: binding; details: as measured by Biacore; stated to be for identification, not absolute affinity values
# From the text: For each trispecific construct, three plasmids were synthesized. […] It should be understood that with respect to the mentioned Biacore affinity values and relative terms in the construct names, these are used merely for identification purposes and are not intended to represent absolute affinity values. A second plasmid encoding a light chain was synthesized as a fusion comprising (in the N-terminal to C-terminal direction) (i) an anti-CD19 VL domain and (ii) a constant human kappa sequence. The proteins encoded by the first and second plasmids form the first half antibody. A third plasmid encoding the second half antibody was synthesized as a fusion comprising (in the N-terminal to C-terminal direction) (i) the IgV domain of CD58 (CD58-6) and (ii) a constant hIgG1 domain containing a T366W mutation for a knob to facilitate heterodimerization as well as silencing mutations.
# Briefly, anti-hFc IgG1 was immobilized on a CM5 chip. After capturing CD3-Fc (1 μg/ml in HBS-EP+ buffer, flow rate of 50 μl/min, with a 30 second injection time) kinetic data was acquired by subsequent injections of 1:2 dilution series of the different antibodies in HBS-EP+ buffer.
# Data were evaluated using the Biacore T200 evaluation software version 1.0. The raw data were double referenced, i.e. the response of the measuring flow cell was corrected for the response of the reference flow cell, and in a second step the response of a blank injection was subtracted. Finally, the sensorgrams were fitted by applying 1:1 binding model to calculate kinetic rate constants and dissociation equilibrium constants. Rmax was set at local. Data were processed individually for each run.
# [6] = target: T2, recombinant human CD2; assay: Isothermal calorimetry (ITC) of CD58 variants binding to CD2; details: apparent KD, CD2 titrated into 10 μM CD58 variant, HBS
# Method: To ensure the binding affinity remained uncompromised by the additional of the stabilizing disulfide variance, isothermal calorimetry (ITC) was performed on the resulting recombinant CD58 proteins to determine their apparent KD and binding stoichiometry (n) to recombinant human CD2.
# Briefly, recombinant human CD2 and recombinant human CD58 variants were dialyzed into HEPES-buffered saline (HBS). CD2 was diluted to final concentration of 100 μM, CD58 variants were diluted to 10 μM. CD2 was titrated into 10 μM of CD58 variants via multiple injections and ΔH (kcal/mole) determined using a MicroCal VP-ITC isothermal titration calorimeter (Malvern). Titrations of CD2 into HBS were used as a reference and KD and n determined from the resulting data.
Molecule,Tm by Differential Scanning Fluorimetry (DSF) [3] [°C],Tm by Differential Scanning Calorimetry (DSC) [4] [°C],Tmonset by Differential Scanning Calorimetry (DSC) [4] [°C],Kd [5] [nM],further results
B1,,,,,"affinity for human CD19, NEG258 vs NEG218 [1]: greater affinity for both human CD19 and cyno CD19; binding to human CD19 compared with cyno CD19 [1]: bind equally to both human and cyno; affinity for cyno CD19, NEG258 vs NEG218 [2]: greater affinity for both human CD19 and cyno CD19"
B2,76.5,80.9,66.7,,
B3,48.5,60.9,46.3,,
B4,63.5,72.5,49.6,,
B5,48.5,66.8,43.9,,
B6,,,,,binding to human CD19 compared with cyno CD19 [1]: greater affinity for cyno CD19 than human CD19
B7,,,,16,
B8,,,,48,
B9,,,,30,
B10,59.5,65.0,48.8,,Kd [6]: 570 nM

# Reference: patent US12221481B2, “CD19 binding molecules and uses thereof” (Novartis AG, priority 2019, dated 2025)
